Here are results for four compounds from patent publication US20230039401A1, “COMPOSITIONS AND METHODS FOR TREATING NRP2-ASSOCIATED DISEASES” (aTyr Pharma, Inc., priority 2018, published 2023).

The test system of assay [1] is murine model of sclerodermatous chronic graft vs. host disease (scl cGvHD). In words: Murine model of sclerodermatous chronic graft vs. host disease. In kind it is in vivo, mouse. The following applies: Fc-HRS(2-60) 0.4 mg/kg weekly IV, nintedanib daily oral, termination 8 weeks. On the procedure: This study was designed to investigate the in vivo potential of test compounds in a murine model of sclerodermatous chronic graft vs. host disease (scl cGvHD). A H-2^d minor histocompatibility antigen-mismatched model was employed. The model was prepared by allogenic transplantation of bone marrow cells and splenocytes of male donor B10.D2 mice into 8 week old female Balb/c mice which had been subject to whole body irradiation with 700 cGy 6 hours prior to transplantation.
Treatment Regimen. Fifty-six (56) Balb/c mice, (Janvier, Le Genest St. Isle, France, female, 8 weeks) were used as recipients in this study while B10.D2 mice (Jackson Laboratory, Bar Harbor, Me., USA, male) were euthanized to provide donor cells for allogenic transplantation. The animals were assigned to study groups of 8 mice, and housed in specific pathogen-free conditions with sterile food and water. In brief, animals received weekly intravenous injections of the Vehicle of Fc-HRS(2-60) (20 mM Histidine/125 mM NaCl/10 mM Methionine/3% Sucrose/0.02% PS20, pH 6.9) beginning on Day 7 post transplantation (groups 2 and 3) or Fc-HRS(2-60) (0.4 mg/kg) beginning on Day 7 (group 4) or Day 21 (group 6) post-transplantation. […] Tissues were examined histologically using common staining techniques and tissue homogenates were analyzed for hydroxyproline content as an index of collagen content. […]

Assay [2] concerns the target T1, NRP2 (Homo sapiens, UniProt O60462).
T1 construct: Fc (C); purchased R&D Systems 2215-N2
In words: SPR protein-protein interaction, human NRP2 over immobilized protein. The assay is classed as binding. The following applies: NRP2 flowed as analyte (50 nM or 20 nM); running buffer with 5 mM CaCl2. On the procedure:
Protein-Protein Interaction studies. […] SPR experiments were conducted on a Bio-Rad ProteOn XPR36 Protein Interaction Array instrument. Proteins were immobilized on different channels of ProteOn GLC sensor chips through amine coupling. Analyte proteins were flowed over the immobilized proteins. The sensor chip surface was regenerated between each analyte run to remove interacting proteins. Data was double referenced against an interspot (untreated chip surface) and a blank surface (activated and deactivated for amine coupling).
Studies were performed to confirm the binding specificity of Neuropilin 2 (NRP2) to Fc-HRS(2-60) using orthologous methods to those used in the large scale Retrogenix screening (Example 1). In a series of experiments, Fc-HRS(2-60) and related proteins were immobilized on SPR chips, and NRP2 and related proteins were flowed as analytes. Upon confirmation of the NRP2:Fc-HRS(2-60) interaction, the dependence on divalent cations was tested as NRP2 is known to have Ca^2+ binding sites. The effects of previously characterized NRP2 ligands on the NRP2: Fc-HRS(2-60) interaction was also tested to determine if these known ligands have competitive effects on the Fc-HRS(2-60) interaction.

Ends that are not written are not given here.

T1 sequence (O60462 21-931): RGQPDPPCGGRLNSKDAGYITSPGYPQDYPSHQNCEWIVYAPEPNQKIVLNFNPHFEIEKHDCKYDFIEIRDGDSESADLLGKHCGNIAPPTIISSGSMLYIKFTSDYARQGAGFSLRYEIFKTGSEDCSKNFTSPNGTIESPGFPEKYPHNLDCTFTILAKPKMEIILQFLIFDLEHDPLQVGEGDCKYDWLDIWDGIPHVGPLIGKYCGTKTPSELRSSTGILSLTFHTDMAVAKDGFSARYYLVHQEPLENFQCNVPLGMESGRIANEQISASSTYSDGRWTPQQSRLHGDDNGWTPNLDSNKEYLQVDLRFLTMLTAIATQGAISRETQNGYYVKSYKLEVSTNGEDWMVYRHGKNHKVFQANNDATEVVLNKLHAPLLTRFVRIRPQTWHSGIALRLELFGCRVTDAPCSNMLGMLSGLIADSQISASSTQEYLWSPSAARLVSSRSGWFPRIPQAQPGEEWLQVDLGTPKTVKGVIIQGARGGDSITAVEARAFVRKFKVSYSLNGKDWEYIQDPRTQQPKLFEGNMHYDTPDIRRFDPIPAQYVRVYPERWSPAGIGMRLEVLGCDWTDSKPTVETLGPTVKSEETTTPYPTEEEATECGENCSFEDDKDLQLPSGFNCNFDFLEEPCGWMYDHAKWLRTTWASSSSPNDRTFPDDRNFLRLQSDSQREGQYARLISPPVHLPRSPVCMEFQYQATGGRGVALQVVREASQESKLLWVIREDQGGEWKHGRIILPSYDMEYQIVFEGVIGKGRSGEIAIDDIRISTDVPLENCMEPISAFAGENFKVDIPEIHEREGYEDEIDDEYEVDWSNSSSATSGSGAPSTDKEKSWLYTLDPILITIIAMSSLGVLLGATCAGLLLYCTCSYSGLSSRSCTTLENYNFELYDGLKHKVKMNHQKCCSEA

`COC(=O)c1ccc2c(c1)NC(=O)/C2=C(\Nc1ccc(N(C)C(=O)CN2CCN(C)CC2)cc1)c1ccccc1` [nintedanib]: the “measures of fibrosis in skin and lung” value in assay [1] (intervention beginning 7 days post-transplantation) is given as “significantly ameliorated all measures of fibrosis”. In addition, in assay [1] (intervention beginning 21 days post-transplantation), the “fibrotic endpoints in skin and lung” value is reported as “significantly improved most endpoints measured”.
As to “GARS Fc-WHEP: Fc domain fused to the WHEP domain of GARS (VLAPLRLAVRQQGDLVRKLKEDKAPQVDVDKAVAELKARKRVLEAKELALQPKDDIV; not fully specified (N-terminus); also: fused to dimerising Fc domain (not included))”, in assay [2], the “binding of human NRP2 to immobilized protein (SPR)” value is listed as “does not bind”.
Still for that read-out and setting: the value for “MARS Fc-WHEP: Fc domain fused to the WHEP domain of MARS (QIQALMDEVTKQGNIVRELKAQKADKNEVAAEVAKLLDLKKQLAVAEGKPPEAPKGK; not fully specified (N-terminus); also: fused to dimerising Fc domain (not included))” was “does not bind”; that for “WARS WHEP: WHEP domain of WARS with a V5/His tag (SLLELFNSIATQGELVRSLKAGNASKDEIDSAVKMLVSLKMSYKAAAGEDYKADCPP; also: V5/His tag (not included))” was “does not bind”.
